Measured values published in publication PMC11750108, “FlbB forms a distinctive ring essential for periplasmic flagellar assembly and motility in Borrelia burgdorferi” (PLOS Pathogens, 2025).

Target: the molecule itself
Assay: SEC-SAXS; purified FLAG-FlbB-His6 at 4 mg/ml, 10 mM HEPES, 140 mM NaCl, pH 7.3; Shodex 802.5 SEC column, SIBYLS beamline 12.3.1; molecular weight from the volume of correlation

B1: FLAG-FlbB-His6 (deleted the first 42 aa from the FlbB) (domain or fragment)
chain: FPEFVRTKLLGETSLVFDHNSNIILDEARLVKEREAIDIKNQQIEKLKEDLKLKEDSLNKLEFELKQKQKDLDLKQKVIDDIINKYNDEEANILQTAVYLMNMPPEDAVKRLEDLNPELAISYMRKIEELSKKEGRLSIVPYWLSLMDSKKAAILIRKMSVSSLE
notes: FlbB, periplasmic flagellar collar protein of Borrelia burgdorferi (205 amino acids); the first 42 aa (with the N-terminal transmembrane helix) deleted; The deletion of the first 42 aa is stated only for the SEC-SAXS sample; Monomer estimated at 20.85 kDa; also called FlbB-6His; source: E. coli codon plus cells; in lysate of mixed cells (pull-downs); purified recombinant (SEC-SAXS, far-western); …
In the case of B1, the “stoichiometry N” value is reported as 2.
